First the molecules themselves.
B1: H1H6803P-DM1 (conjugate)
VH: EVQLVESGGGVVRPGGSLRLSCAASGFKFDDYGMTWVRHVPGKGLEWVSGINWNGGRTGYTDSVKGRFTISRDNAKNSLYLQMNSLRAEDTALYHCAGARRDAFDIWGQGTMVTVSS
VL: DIQMTQSPSSLSASIGDRVTITCRASQNIIKYLNWYQQNAGKAPKLLIYTASSLQSGVPSRFSGSGSGTDFTLTISSLQPEDFATYYCQQSSSSPYTFGQGTKLEIK
B2: H1H6959N2-DM1 (conjugate)
VH: EVQLVESGGGLVQPGRSLRLSCAASGFTFDDYAMHWVRQAPGKGLEWVSGISWHSGIIGYADSVKGRFTISRDNAKNSLYLQMNSLRTEDAALYYCAKIGSYFYFDSWGQGTLVTVSS
VL: EIVLTQSPGTLSLSPGERATLSCRASQSVSSNYLAWYQQKPGQAPRLLIYGASSRATGIPDRFSGSGSGTDFTLTISRLEPEDFAVYYCQQFGSSGYTFGQGTNLEIK
B3: H1H6960N-DM1 (conjugate)
VH: EVQLVESGGGLVKPGGSLRLSCAASGITFSSYSMNWVRQAPGKGLEWVSSISTRSSLIHYADSVKGRFTISRDNAKNSLYLQMNSLRDEDTAVYYCARWDAAAAFDYWGQGTLVIVSS
VL: DIQLTQSPSFLSASVGDRVTITCWASQGISSYLAWYQQKPGKAPKLLIYVASTLQSGVPSRFSGSGSGTEFTLTISSLQPEDFATYFCQQLNSYPLTFGGGTKVEIK
B4: H1H6800P-DM1 (conjugate)
VH: EVQLVESGGGLVQPGRSLRLSCAASGFTFDGYAMHWVRQGPGKGLEWVSGISWYSDTLGYADSVKGRFTISRDNAKNSLYLQMNSLRTEDTAFYYCAKISSSGWAFDYWGQGTLVTVSS
VL: EIVLTQSPGTLSLSPGERATLSCRASHSVSSAYLAWYQQKPGQTPRLLIYGTSSRATGIPDRFSGSGSGTDFTLTISRLEPEDFAVYYCQQYGSSPLFTFGPGTKVDIK

The test system of one data set is T47D cells. In words: Cell viability (cell kill) assay. In kind it is cell-based. Conditions: T47D; Table 12; 3 days. The method, then: (§1) Next, the ability of anti-PRLR-DM1 antibody-drug conjugates (i.e., anti-PRLR antibodies conjugated to DM1 via a non-cleavable linker [SMCC]) to reduce cell viability was determined using in vitro cell based assays. Cells were seeded in PDL-coated 96 well plates at 1500 to 10000 cells per well in complete growth media and allowed to grow overnight. For cell viability curves, ADCs or free DM1 (as the methyl disulfide derivative DM1-SMe) were added to the cells at final concentrations ranging from 500 nM to 5 pM and incubated for 3 days. The 293, PC3 and T47D cells were incubated with CCK8 (Dojindo, Rockville, Md.) for the final 1-3 hours and the absorbance at 450 nm (OD450) was determined on a Flexstation3 (Molecular Devices, Sunnyvale, Calif.). MCF7 cells were treated with Hoechst 33342 nuclear stain while being fixed with 4% formaldehyde. Images were acquired on the ImageXpress micro XL (Molecular Devices, Sunnyvale, Calif.) and nuclear counts were determined via Columbus image analysis software (Perkin Elmer, Shelton, Conn.). Background OD450 values (PC3, 293, and T47D) or nuclear counts (MCF7) from digitonin (40 nM) treated cells was subtracted from all wells and viability was expressed as a percentage of the untreated controls. IC50 values were determined from a four-parameter logistic equation over a 10-point response curve (GraphPad Prism).
Additionally, the impact of the PRLR ligand, PRL, on PRLR-SMCC-DM1 cell kill in T47D cells was assessed. T47D cells were incubated simultaneously with PRL (15 nM) and either a non-blocking anti PRLR antibody (H1H6782P) or a receptor blocking antibody (H1H6958N2).
(§2) Additional toxins (DM4, MeNHC3-May, and MMD) conjugated to anti-PRLR antibodies were also tested in T47D and MCF7/hPRLR cell lines, and results are summarized in Tables 19 (293 and T47D cell killing) and 20 (MCF7/ATCC and MCF7/PRLR cell killing). (ND=not detected).
Regarding B1, the “% Kill” value was found to be 77%.

As for B2, the “% Kill” value was 71%.

For B3, the “% Kill” value is listed as 71%.

On to B4, for which the “% Kill” value was found to be 79%.

Still in this data set, the particulars now being: T47D; Table 12; 3 days; read-out: IC50.
The IC50 is the point on the concentration scale where inhibition reaches its midpoint. Take B1: the IC50 amounted to 8.61 nM.

As for B2, the half-inhibitory concentration (IC50) amounted to 48.9 nM.

As to B3, the half-maximal inhibitory concentration (IC50) turned out to be 5.1 nM.

As for B4, the IC50 is 3.2 nM.

Another data set concerns MCF7 (MCF7/ATCC) cells. In words: Cell viability (cell kill) assay, nuclear counts. It counts as cell-based. Conditions: MCF7; Table 12; 3 days.
Excerpt: (§3) PRLR-overexpressing cells, including HEK293, PC3, MCF7 and NCI-N87, were generated to assess the ability of anti-PRLR conjugated antibodies to reduce cell viability. For comparative purposes, PC3 and T47D cells with overexpressed ErbB2 were also generated, as well as an MCF7 cell line over-expressing both hPRLR and hErbB2. Briefly, Lipofectamine® 2000-mediated transfection methodology was utilized to generate HEK293 cells expressing human PRLR (HEK293/hPRLR) or human ErbB2 (HEK293/hErbB2). Lipofectamine LTX with Plus Reagent was used to generate PC3 cells expressing human PRLR (PC3/hPRLR) or human ErbB2 (PC3/hErbB2). Lentiviral-mediated transduction was utilized to generate MCF7 cells expressing human PRLR (MCF7/hPRLR), NCI-N87 cells expressing human PRLR (NCI-N87/hPRLR), T47D cells over-expressing human ErbB2 (T47D/hErbB2), and MCF7 cells expressing both human PRLR and human ErbB2 (MCF7/hPRLR/hErbB2). All lines were selected for at least two weeks in complete growth media plus appropriate selection reagents. Stably expressing populations were enriched for PRLR expression via FACS using the anti PRLR antibody Control I.
as §1
(§4) Finally, the potency of anti-PRLR antibodies conjugated to DM1 via the non-cleavable linker SMCC was compared to the cell killing potency of anti-PRLR antibodies conjugated to MMAE via the cleavable linker: mc-vc-PAB (available from Concortis, San Diego, Calif.). Cells used in this experiment were PC3, PC3/hPRLR, MCF7/ATCC and MCF7/PRLR.
as §2
Turning to B1, the “% Kill” value came to 60% and it took 150 nM to reach half-maximal inhibition (IC50).

For the molecule B2, the “% Kill” value turned out to be 82% and the IC50 was 100 nM.

For B3, the “% Kill” value was 77% and the 50% inhibitory concentration (IC50) came to 100 nM.

As to B4, the “% Kill” value was 65% and the IC50 was 150 nM.

For the next data set, the system named is PC3 cells. Nature of the data set: Cell viability (cell kill) assay. In kind it is cell-based. Conditions: Table 11, 3 days.
Excerpt: as §3, §1, §4
Molecule B1 gave an IC50 of 150 nM.

B4 showed an IC50 of 150 nM.

The test system of a further data set is HEK293/hPRLR (293/hPRLR) cells. Nature of the data set: Cell viability (cell kill) assay. Conditions: 293/PRLR; Table 11; 3 days. It counts as cell-based, human.
Excerpt: as §3, §1
As for B2, the “% Kill” value is 95%.

In the case of B3, the “% Kill” value is 95%.

Still in this data set, the particulars now being: 293/PRLR; Table 11; 3 days; read-out: IC50.
In the case of B2, the IC50 came out at 4.82 nM.

For the molecule B3, the IC50 was found to be 0.38 nM.

The next data set has as its system HEK293 (293) cells. In words: Cell viability (cell kill) assay. Conditions: 293; Table 11; 3 days. In kind it is cell-based.
Excerpt: as §3, §1
Take B2: the “% Kill” value came to 100%.

On to B3, for which the “% Kill” value is on record as 100%.

Regarding B4, the “% Kill” value was determined as 85% and half-maximal inhibition (IC50) required 150 nM.

The test system of another data set is PC3/hPRLR cells. In words: Cell viability (cell kill) assay. It counts as cell-based, human. The note with it: PC3/PRLR; Table 11; 3 days.
Excerpt: as §3, §1, §4
B1: the “% Kill” value is listed as 70% and the IC50 is 2.32 nM.

In the case of B2, the “% Kill” value is recorded as 82% and the IC50 stood at 11.6 nM.

As to B3, the “% Kill” value was determined as 82% and 1.13 nM corresponded to half-maximal inhibition (IC50).

Turning to B4, the “% Kill” value is listed as 68% and it took 1.37 nM to reach half-maximal inhibition (IC50).

The next data set has as its system MCF7/hPRLR (MCF7/PRLR) cells. In words: Cell viability (cell kill) assay, nuclear counts. It counts as cell-based, human. Conditions: Table 12, 3 days.
Excerpt: as §3, §1, §4, §2
Turning to B1, the “% Kill” value turned out to be 84% and the midpoint of inhibition, the IC50, lay at 0.44 nM.

B2: the “% Kill” value was 80% and the IC50 came out at 0.47 nM.

Regarding B3, the “% Kill” value came out at 78% and half-maximal inhibition (IC50) required 0.29 nM.

As to B4, the “% Kill” value is on record as 85% and the 50% inhibitory concentration (IC50) was 0.4 nM.

Tested on in the next data set: not listed separately
In words: Conjugate characterization: protein and linker/payload concentrations, payload loading (UV, MALDI-TOF, SEC-HPLC, RP-HPLC). In kind it is physicochemical. Conditions: Anti-PRLR-SMCC-DM1 conjugates; Table 9. The text has this: Selected anti-PRLR antibodies were conjugated to the maytansinoid DM1 through an SMCC linker using methods similar to those set forth in U.S. Pat. No. 5,208,020 and US Patent Application Publication No. 2010/0129314, the disclosures of which are incorporated by reference herein in their entireties. The conjugates were purified by size exclusion chromatography and sterile filtered. All starting materials and solvents were purchased commercially and used without purification, unless otherwise noted.
Protein and linker/payload concentrations were determined by UV spectral analysis and MALDI-TOF mass spectrometry. Size-exclusion HPLC established that all conjugates used were >95% monomeric, and RP-HPLC established that there was <0.5% unconjugated linker payload. Yields are reported in Table 8 and 9 based on protein. All conjugated antibodies were analyzed by UV for linker payload loading values according to Hamblett et al, 2004, Clinical Cancer Research 10(20):7063-7070, and by mass difference, native versus conjugated.
For the molecule B1, the “Payload:Antibody Molar Ratio (MS)” value worked out at 3.1.

For the molecule B2, the “Payload:Antibody Molar Ratio (MS)” value is 3.3 and the “Payload:Antibody Molar Ratio (UV)” value came out at 3.8.

For B3, the “Payload:Antibody Molar Ratio (MS)” value was determined as 3.0 and the “Payload:Antibody Molar Ratio (UV)” value was determined as 3.6.

Turning to B4, the “Payload:Antibody Molar Ratio (MS)” value was found to be 3.2 and the “Payload:Antibody Molar Ratio (UV)” value is 3.0.

Values taken from patent US9688764B2, “Methods of treating breast cancer by administering anti-human prolactin receptor (PRLR) antibodies” (REGENERON PHARMACEUTICALS, INC., priority 2013, dated 2017).
